Laboratory results as given in PMC7378552, “Impact of the nisin modification machinery on the transport kinetics of NisT” (Scientific Reports, 2020).
Blank lines part the entries; values can stand above or below the molecule they belong to.

B2: 10HNisT (deca-histidine tagged NisT, ABC transporter of the nisin precursor peptide) (natural protein, Lactococcus lactis, UniProt Q03203 1-600, looked up)
chain: MDEVKEFTSKQFFYTLLTLPSTLKLIFQLEKRYAIYLIVLNAITAFVPLASLFIYQDLINSVLGSGRHLINIIIIYFIVQVITTVLGQLESYVSGKFDMRLSYSINMRLMRTTSSLELSDYEQADMYNIIEKVTQDSTYKPFQLFNAIIVELSSFISLLSSLFFIGTWNIGVAILLLIVPVLSLVLFLRVGQLEFLIQWQRASSERETWYIVYLLTHDFSFKEIKLNNISNYFIHKFGKLKKGFINQDLAIARKKTYFNIFLDFILNLINILTIFAMILSVRAGKLLIGNLVSLIQAISKINTYSQTMIQNIYIIYNTSLFMEQLFEFLKRESVVHKKIEDTEICNQHIGTVKVINLSYVYPNSNAFALKNINLSFEKGELTAIVGKNGSGKSTLVKIISGLYQPTMGIIQYDKMRSSLMPEEFYQKNISVLFQDFVKYELTIRENIGLSDLSSQWEDEKIIKVLDNLGLDFLKTNNQYVLDTQLGNWFQEGHQLSGGQWQKIALARTFFKKASIYILDEPSAALDPVAEKEIFDYFVALSENNISIFISHSLNAARKANKIVVMKDGQVEDVGSHDVLLRRCQYYQELYYSEQYEDNDE
notes: NisT, lanthipeptide ABC transporter of Lactococcus lactis; nisT gene amplified from genomic DNA of L. lactis NZ97000 and inserted into pNZ-SV10H; TMD is residues 1-347, the NBD begins at H348; Used in detergent (CYMAL5) in the pull-down; also called WT; source: L. lactis NZ9000 (pNZ-SV10HnisT), membranes solubilised with FC-16, purified (IMAC, SEC); not shown: His10 (deca-histidine), N-terminal, …

Key:
[1] = biological target: T1, NisT (10HNisT) (Lactococcus lactis, UniProt Q03203); experiment: malachite green phosphate release assay, Michaelis-Menten fit; type: biochemical; conditions: basal ATPase, no peptide substrate; 1 µM NisT, ATP 0-5 mM, 10 mM MgCl2, 0.4% CYMAL5, 30 °C, 30 min
T1 construct: full length, N-terminal deca-His tag with linker (tag kept), homologous expression in L. lactis NZ9000, solubilised in Fos-choline-16, assayed in CYMAL5
T1 sequence (Q03203 1-600): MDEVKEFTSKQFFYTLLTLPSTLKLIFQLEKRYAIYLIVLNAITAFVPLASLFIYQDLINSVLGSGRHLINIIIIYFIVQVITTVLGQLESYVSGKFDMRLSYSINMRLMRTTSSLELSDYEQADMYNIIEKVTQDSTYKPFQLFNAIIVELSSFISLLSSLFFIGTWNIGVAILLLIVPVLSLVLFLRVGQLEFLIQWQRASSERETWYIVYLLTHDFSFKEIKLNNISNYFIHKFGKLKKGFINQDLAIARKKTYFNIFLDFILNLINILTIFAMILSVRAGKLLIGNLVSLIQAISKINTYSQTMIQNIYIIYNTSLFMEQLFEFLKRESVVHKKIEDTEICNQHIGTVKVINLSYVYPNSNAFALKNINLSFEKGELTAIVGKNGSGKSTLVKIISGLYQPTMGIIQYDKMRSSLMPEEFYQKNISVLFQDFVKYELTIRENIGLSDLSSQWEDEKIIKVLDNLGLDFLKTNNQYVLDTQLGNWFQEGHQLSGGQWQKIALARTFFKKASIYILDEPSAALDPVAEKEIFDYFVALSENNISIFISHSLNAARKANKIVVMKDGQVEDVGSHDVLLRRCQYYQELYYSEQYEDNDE

[2] = biological target: B2; experiment: pull-down; 10HNisT (~15 ug) immobilised on Ni-NTA magnetic beads; 10 uM NisB, NisC or NisBC added without substrate; activity assay buffer with 0.4% CYMAL5, 400 mM glutamate, 5 mM MgATP; 1 h at 30 C; six washes, elution with 50 mM EDTA; Western blot; conditions: both partners purified
[3] = biological target: T2, NisB (dehydratase of nisin precursor peptide) (Lactococcus lactis, UniProt P20103 1-993); experiment: as above; conditions: both partners purified
T2 construct: NisB, nisin dehydratase of Lactococcus lactis; NisB alone was not held on Ni-NTA beads, so it probably bore no His tag in the assay; source: purified
T2 sequence (looked up): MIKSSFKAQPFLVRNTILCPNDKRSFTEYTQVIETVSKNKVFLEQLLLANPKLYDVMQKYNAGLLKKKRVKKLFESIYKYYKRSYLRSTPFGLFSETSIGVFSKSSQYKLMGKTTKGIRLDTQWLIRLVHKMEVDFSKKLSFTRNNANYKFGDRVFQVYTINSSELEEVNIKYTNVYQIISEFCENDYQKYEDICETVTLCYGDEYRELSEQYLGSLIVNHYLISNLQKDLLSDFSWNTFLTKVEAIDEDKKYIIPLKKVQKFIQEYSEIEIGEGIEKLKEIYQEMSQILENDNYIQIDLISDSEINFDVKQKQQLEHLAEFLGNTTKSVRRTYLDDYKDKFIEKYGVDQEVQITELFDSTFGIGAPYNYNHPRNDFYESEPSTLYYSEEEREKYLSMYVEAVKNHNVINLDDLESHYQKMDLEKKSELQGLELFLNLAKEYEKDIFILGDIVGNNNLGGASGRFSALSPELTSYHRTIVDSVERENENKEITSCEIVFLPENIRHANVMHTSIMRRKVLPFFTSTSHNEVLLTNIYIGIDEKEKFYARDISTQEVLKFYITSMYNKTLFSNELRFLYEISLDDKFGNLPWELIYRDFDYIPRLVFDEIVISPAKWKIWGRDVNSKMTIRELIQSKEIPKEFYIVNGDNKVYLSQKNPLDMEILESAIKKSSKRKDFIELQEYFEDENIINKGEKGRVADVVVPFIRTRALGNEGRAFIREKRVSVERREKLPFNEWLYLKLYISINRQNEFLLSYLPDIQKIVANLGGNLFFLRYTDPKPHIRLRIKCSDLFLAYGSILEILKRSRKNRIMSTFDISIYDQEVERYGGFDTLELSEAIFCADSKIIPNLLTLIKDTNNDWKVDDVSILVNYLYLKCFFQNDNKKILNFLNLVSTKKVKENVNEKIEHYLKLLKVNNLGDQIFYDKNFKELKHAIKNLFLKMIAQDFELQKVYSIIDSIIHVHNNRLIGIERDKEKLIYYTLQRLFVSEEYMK

Km [1]: 370 ± 40 µM
Molecule: Nc1ncnc2c1ncn2[C@@H]1O[C@H](COP(=O)(O)OP(=O)(O)OP(=O)(O)O)[C@@H](O)[C@H]1O [ATP]

binding result [2]: binds
B1: NisC (cyclase of nisin precursor peptide) (enzyme, Lactococcus lactis, UniProt Q03202 1-418, looked up)
chain: MRIMMNKKNIKRNVEKIIAQWDERTRKNKENFDFGELTLSTGLPGIILMLAELKNKDNSKIYQKKIDNYIEYIVSKLSTYGLLTGSLYSGAAGIALSILHLREDDEKYKNLLDSLNRYIEYFVREKIEGFNLENITPPDYDVIEGLSGILSYLLLINDEQYDDLKILIINFLSNLTKENNGLISLYIKSENQMSQSESEMYPLGCLNMGLAHGLAGVGCILAYAHIKGYSNEASLSALQKIIFIYEKFELERKKQFLWKDGLVADELKKEKVIREASFIRDAWCYGGPGISLLYLYGGLALDNDYFVDKAEKILESAMQRKLGIDSYMICHGYSGLIEICSLFKRLLNTKKFDSYMEEFNVNSEQILEEYGDESGTGFLEGISGCILVLSKFEYSINFTYWRQALLLFDDFLKGGKRK
notes: NisC, nisin cyclase of Lactococcus lactis; NisC alone was not held on Ni-NTA beads, so it probably bore no His tag in the assay; source: purified

Molecule: B2
binding result [3]: binds
